Entries after “also recorded” stand apart in the source; their conditions may differ. Like-named read-outs stand apart in the source and are kept apart here.
Key:
SpyCas9 [1] = target: T1, SpyCas9 (Streptococcus pyogenes serotype M1, UniProt Q99ZW2); format: biochemical, S. pyogenes
Method: To determine whether synthetic peptides would inhibit Cas9 cleavage activity, 200 peptide sequences were selected for chemical synthesis based on the following criteria: (1) peptides enriched after independent panning on RNP immobilized on both the Monomeric Avidin and NeutrAvidin columns, (2) Higher Boman index (>2.3), the computed potential protein-protein interaction for a given amino-acids sequence (3) a predicted instability index below 50. Theses peptides were screened at 200 μM for inhibition of Cas9 cleavage activity using the recently developed HT FRET-based assay using a dual-quencher substrate with low background and high sensitivity. See Seamon K J, Light Y K, Saada E A, Schoeniger J S, Harmon B. 2018. Versatile High-Throughput Fluorescence Assay for Monitoring Cas9 Activity. Analytical Chemistry 90:6913-6921. This assay specifically measures DNA substrate cleavage, and is able to differentiate between cleavage of a single strand of DNA and cleavage of both DNA strands.
Reactions (10 μL tubes) were set up in Cas9 reaction buffer (20 mM Tris-HCl, pH 7.5, 100 mM NaCl, 5 mM MgCl2, 0.1 mM EDTA) containing 50 nM annealed DNA substrate, 1.5 μM sgRNA, and 500 nM Cas9 in the wells of a black low volume 384-well plate. The reactions were incubated for 1 hour at ambient temperature; then, 10 μL of 8 M Gdn-HCl was added to quench the reaction before the plates were covered with an aluminum seal and incubated at 80° C. for 10 minutes. The fluorescence was read in a Tecan Infinite M1000 or SPARK plate spectrofluorometer (Tecan).
The peptides were diluted 2-fold from 200 to 12.5 μM and incubated for 1 hour with 500 nM SpyCas9, gRNA prior to addition of 50 nM FRET DNA substrate for 1 hour. […] Data are the average ±SD of three replicate wells.
(§1) For the 11 original peptides reactions (10 μL) were set up in Cas9 reaction buffer [20 mM Tris-HCl, pH 7.5, 100 mM NaCl, 5 mM MgCl2, 0.1 mM EDTA] containing 50 nM annealed DNA substrate, 1.5 μM sgRNA, and 0.5 μM Cas9 in the wells of a black low volume 384-well plate. The reactions were incubated for 1 hour at ambient temperature with the indicated concentration of peptide; then, 10 μL, of 8 M Guanidine-HCl was added to quench the reaction. The plates were covered with an aluminum seal and incubated at 75° C. for 10 minutes and cooled down to RT before reading.
(§2) The % inhibition was determined by subtracting normalized relative fluorescent value to Cas9 without peptides (% activity) from 100% cleavage activity of CjeCas9, SauCas9, SpyCas9 by FRET assay. Data are the average ±SD of eleven replicate wells from three technical replicates at the indicated concentration of peptides.
(§3) FIGS. 12A, 12B, and 12C show graphs of measurements and fitted curves of concentration dependent inhibition of mutated peptides against Cas9 variants. The inhibition was measured as relative fluorescent value to Cas9 without peptides (% activity) of CjeCas9 (line with squares), SauCas9 (line with diamonds), SpyCas9 (line with triangles) by FRET assay with the indicated concentration of peptides and compared to original peptides (line with circles). Data are the average ±SD of eleven replicate wells from three technical replicates.

SauCas9 = target: T2, SauCas9 (Staphylococcus aureus, UniProt J7RUA5); experiment: HT FRET-based Cas9 cleavage activity assay, SauCas9; format: biochemical, S. aureus
T2 construct: made in house; host or cells: E. coli BL21(star)DE3
T2 sequence (J7RUA5 whole entry, looked up): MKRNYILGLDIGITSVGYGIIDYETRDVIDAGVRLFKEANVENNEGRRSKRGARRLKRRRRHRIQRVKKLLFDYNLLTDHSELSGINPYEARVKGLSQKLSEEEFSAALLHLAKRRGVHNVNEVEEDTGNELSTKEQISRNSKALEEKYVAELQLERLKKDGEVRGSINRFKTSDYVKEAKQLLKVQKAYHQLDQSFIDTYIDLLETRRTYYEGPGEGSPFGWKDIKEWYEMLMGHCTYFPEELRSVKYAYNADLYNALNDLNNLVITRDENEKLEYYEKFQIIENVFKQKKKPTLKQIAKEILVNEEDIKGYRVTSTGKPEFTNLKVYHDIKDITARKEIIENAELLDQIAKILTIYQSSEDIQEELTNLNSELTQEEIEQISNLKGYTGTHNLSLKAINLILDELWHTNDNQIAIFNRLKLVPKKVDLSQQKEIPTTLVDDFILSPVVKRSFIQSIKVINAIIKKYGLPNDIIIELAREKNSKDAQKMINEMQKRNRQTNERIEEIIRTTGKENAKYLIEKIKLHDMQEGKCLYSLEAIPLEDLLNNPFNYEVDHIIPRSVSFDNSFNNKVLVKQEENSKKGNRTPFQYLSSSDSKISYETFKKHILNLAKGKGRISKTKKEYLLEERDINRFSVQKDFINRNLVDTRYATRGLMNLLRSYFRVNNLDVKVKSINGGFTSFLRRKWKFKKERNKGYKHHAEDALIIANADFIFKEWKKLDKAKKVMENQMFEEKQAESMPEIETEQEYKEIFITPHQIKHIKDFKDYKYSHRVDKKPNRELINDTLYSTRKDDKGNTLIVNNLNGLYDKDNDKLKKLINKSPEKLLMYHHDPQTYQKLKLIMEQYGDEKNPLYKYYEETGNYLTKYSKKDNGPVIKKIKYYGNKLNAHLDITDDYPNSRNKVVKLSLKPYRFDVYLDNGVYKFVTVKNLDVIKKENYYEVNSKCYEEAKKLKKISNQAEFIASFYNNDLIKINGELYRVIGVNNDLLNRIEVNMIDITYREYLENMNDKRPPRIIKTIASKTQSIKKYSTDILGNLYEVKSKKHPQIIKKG
Method: To evaluate the ability of identified peptides to inhibit other Cas9 variants, SauCas9 and CjeCas9 cleavage assays were used to quantitatively measure changes in activity. […] The inhibition was measured as relative fluorescent value to Cas9 without peptides (% activity) of CjeCas9 (Top), SauCas9 (middle), SpyCas9 (bottom) by FRET assay with the indicated concentration of peptides. Data are the average ±SD of eleven replicate wells from three technical replicates.
as §1, §2, §3

SpyCas9 [2] = target: T1, SpyCas9; experiment: Beacon DNA binding assay (Cas9 RNP binding to DNA substrate); set-up: species or system S. pyogenes
Method: To determine the mechanism of action of these peptide inhibitors, a binding assay was performed to determine if inhibitors are blocking Cas9 RNP binding to the DNA substrate. The beacon DNA binding assay was adapted and performed as described in Mekler V, Minakhin L, Semenova E, Kuznedelov K, Severinov K. 2016. Kinetics of the CRISPR-Cas9 effector complex assembly and the role of 3′-terminal segment of guide RNA. Nucleic Acids Res 44:2837-45. DNA probes were prepared from unmodified and chromophore-labeled DNA oligonucleotides synthesized by Integrated DNA Technologies. Equimolar amounts of synthetic complementary strands were mixed in a buffer containing 40 mM Tris, pH 7.9, 100 mM NaCl; heated for 2 min at 90° C. and slowly cooled to 20° C. The PAM-distal ends of the beacon target and non-target strands were labeled with fluorescein and Iowa Black® FQ, respectively. Both beacons mimic native target DNA and bind Cas9/sgRNA. The fluorescent signal is increased when Cas9 binds the DNA substrate and a helix forms with the target substrate strand and gRNA resulting in dissociation of oligo 3, leading to increase in fluorescent signal.
Data are the average ±SD of three replicate wells.

T1 sequence (Q99ZW2 whole entry): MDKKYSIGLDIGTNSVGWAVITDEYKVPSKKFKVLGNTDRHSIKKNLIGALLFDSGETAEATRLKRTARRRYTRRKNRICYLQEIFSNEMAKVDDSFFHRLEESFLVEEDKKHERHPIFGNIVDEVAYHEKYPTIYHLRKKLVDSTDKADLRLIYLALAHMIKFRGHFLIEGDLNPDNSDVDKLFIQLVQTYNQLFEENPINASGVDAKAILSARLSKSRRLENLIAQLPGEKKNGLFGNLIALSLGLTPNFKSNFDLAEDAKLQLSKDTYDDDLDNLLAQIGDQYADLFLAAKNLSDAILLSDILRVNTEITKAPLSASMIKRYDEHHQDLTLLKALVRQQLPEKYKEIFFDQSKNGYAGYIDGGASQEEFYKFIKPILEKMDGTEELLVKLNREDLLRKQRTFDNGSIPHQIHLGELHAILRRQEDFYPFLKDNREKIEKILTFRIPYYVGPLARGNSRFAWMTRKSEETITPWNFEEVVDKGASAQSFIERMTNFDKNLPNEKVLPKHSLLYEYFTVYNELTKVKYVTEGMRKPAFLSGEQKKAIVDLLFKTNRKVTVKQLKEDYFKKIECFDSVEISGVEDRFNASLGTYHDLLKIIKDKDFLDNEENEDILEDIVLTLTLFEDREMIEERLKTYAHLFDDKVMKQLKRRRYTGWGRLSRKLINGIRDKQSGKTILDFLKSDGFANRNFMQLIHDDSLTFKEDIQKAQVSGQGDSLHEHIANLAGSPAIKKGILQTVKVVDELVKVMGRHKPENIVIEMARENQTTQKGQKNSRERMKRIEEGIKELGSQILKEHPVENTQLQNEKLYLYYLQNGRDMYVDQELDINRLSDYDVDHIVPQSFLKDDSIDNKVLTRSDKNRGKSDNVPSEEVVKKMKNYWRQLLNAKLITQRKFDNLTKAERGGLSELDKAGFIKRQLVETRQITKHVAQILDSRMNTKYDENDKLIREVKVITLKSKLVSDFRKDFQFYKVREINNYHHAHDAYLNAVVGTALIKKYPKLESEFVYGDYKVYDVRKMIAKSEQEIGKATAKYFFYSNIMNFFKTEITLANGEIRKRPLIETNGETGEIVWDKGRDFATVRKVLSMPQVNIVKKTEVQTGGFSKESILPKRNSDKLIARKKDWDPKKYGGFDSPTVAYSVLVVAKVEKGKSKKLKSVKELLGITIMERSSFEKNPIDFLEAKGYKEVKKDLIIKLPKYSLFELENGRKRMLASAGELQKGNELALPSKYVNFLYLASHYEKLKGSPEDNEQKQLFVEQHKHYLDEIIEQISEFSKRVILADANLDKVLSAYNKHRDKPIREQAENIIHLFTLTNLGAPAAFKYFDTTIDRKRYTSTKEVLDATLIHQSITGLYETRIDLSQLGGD

Sequence: VYDFYRMLSHFFLKGPSR [Peptide 91]
- activity of SpyCas9 (% activity, FRET) (SpyCas9 [1]; peptide 100 μM): significantly reduced activity
- activity of SpyCas9 (% activity, FRET) (SpyCas9 [1]; peptide 200 μM): significantly reduced activity
- activity of SauCas9 (% activity, FRET) (SauCas9; peptide 100 μM): significantly reduced activity
- activity of SauCas9 (% activity, FRET) (SauCas9; peptide 200 μM): significantly reduced activity; also recorded: reduced SauCas9 activity
- mechanism subset: blocks Cas9 RNP binding to target DNA or other mechanism (SpyCas9 [2]): block Cas9 RNP binding to the target DNA
- binding of SpyCas9 RNP to DNA substrate (beacon fluorescence) (SpyCas9 [2]; peptide 40 μM, SpyCas9 500 nM, DNA substrate 50 nM): unaltered; also recorded: did not reduce substrate binding
